Data on 8 molecules can be found in article PMC11574045, “A cofactor-induced repressive type of transcription factor condensation can be induced by synthetic peptides to suppress tumorigenesis” (The EMBO Journal, 2024).

The chains are these.
B1: TSHZ1 (protein, UniProt Q6ZSZ6 1-1077, looked up)
Teashirt homolog 1: MPRRKQQAPRRSAAYVPEEELKAAEIDEEHVEDDGLSLDIQESEYMCNEETEIKEAQSYQNSPVSSATNQDAGYGSPFSESSDQLAHFKGSSSREEKEDPQCPDSVSYPQDSLAQIKAVYANLFSESCWSSLALDLKKSGSTTSTNDASQKESSAPTPTPPTCPVSTTGPTTSTPSTSCSSSTSHSSTTSTSSSSGYDWHQAALAKTLQQTSSYGLLPEPSLFSTVQLYRQNNKLYGSVFTGASKFRCKDCSAAYDTLVELTVHMNETGHYRDDNRDKDSEKTKRWSKPRKRSLMEMEGKEDAQKVLKCMYCGHSFESLQDLSVHMIKTKHYQKVPLKEPVPAITKLVPSTKKRALQDLAPPCSPEPAGMAAEVALSESAKDQKAANPYVTPNNRYGYQNGASYTWQFEARKAQILKCMECGSSHDTLQQLTAHMMVTGHFLKVTTSASKKGKQLVLDPVVEEKIQSIPLPPTTHTRLPASSIKKQPDSPAGSTTSEEKKEPEKEKPPVAGDAEKIKEESEDSLEKFEPSTLYPYLREEDLDDSPKGGLDILKSLENTVSTAISKAQNGAPSWGGYPSIHAAYQLPGTVKPLPAAVQSVQVQPSYAGGVKSLSSAEHNALLHSPGSLTPPPHKSNVSAMEELVEKVTGKVNIKKEERPPEKEKSSLAKAASPIAKENKDFPKTEEVSGKPQKKGPEAETGKAKKEGPLDVHTPNGTEPLKAKVTNGCNNLGIIMDHSPEPSFINPLSALQSIMNTHLGKVSKPVSPSLDPLAMLYKISNSMLDKPVYPATPVKQADAIDRYYYENSDQPIDLTKSKNKPLVSSVADSVASPLRESALMDISDMVKNLTGRLTPKSSTPSTVSEKSDADGSSFEEALDELSPVHKRKGRQSNWNPQHLLILQAQFASSLRETTEGKYIMSDLGPQERVHISKFTGLSMTTISHWLANVKYQLRRTGGTKFLKNLDTGHPVFFCNDCASQFRTASTYISHLETHLGFSLKDLSKLPLNQIQEQQNVSKVLTNKTLGPLGATEEDLGSTFQCKLCNRTFASKHAVKLHLSKTHGKSPEDHLIYVTELEKQ
B2: TSC22D2 (protein, UniProt O75157 1-780, looked up)
TSC22 domain family protein 2: MSKMPAKKKSCFQITSVTTAQVATSITEDTESLDDPDESRTEDVSSEIFDVSRATDYGPEEVCERSSSEETLNNVGDAETPGTVSPNLLLDGQLAAAAAAPANGGGVVSARSVSGALASTLAAAATSAPAPGAPGGPQLAGSSAGPVTAAPSQPPTTCSSRFRVIKLDHGSGEPYRRGRWTCMEYYERDSDSSVLTRSGDCIRHSSTFDQTAERDSGLGATGGSVVVVVASMQGAHGPESGTDSSLTAVSQLPPSEKMSQPTPAQPQSFSVGQPQPPPPPVGGAVAQSSAPLPPFPGAATGPQPMMAAAQPSQPQGAGPGGQTLPPTNVTLAQPAMSLPPQPGPAVGAPAAQQPQQFAYPQPQIPPGHLLPVQPSGQSEYLQQHVAGLQPPSPAQPSSTGAAASPATAATLPVGTGQNASSVGAQLMGASSQPSEAMAPRTGPAQGGQVAPCQPTGVPPATVGGVVQPCLGPAGAGQPQSVPPPQMGGSGPLSAVPGGPHAVVPGVPNVPAAVPAPSVPSVSTTSVTMPNVPAPLAQSQQLSSHTPVSRSSSIIQHVGLPLAPGTHSAPTSLPQSDLSQFQTQTQPLVGQVDDTRRKSEPLPQPPLSLIAENKPVVKPPVADSLANPLQLTPMNSLATSVFSIAIPVDGDEDRNPSTAFYQAFHLNTLKESKSLWDSASGGGVVAIDNKIEQAMDLVKSHLMYAVREEVEVLKEQIKELVERNSLLERENALLKSLSSNDQLSQLPTQQANPGSTSQQQAVIAQPPQPTQPPQQPNVSSA
B3: TSG101 (protein, UniProt Q99816 2-390, looked up)
Tumor susceptibility gene 101 …: AVSESQLKKMVSKYKYRDLTVRETVNVITLYKDLKPVLDSYVFNDGSSRELMNLTGTIPVPYRGNTYNIPICLWLLDTYPYNPPICFVKPTSSMTIKTGKHVDANGKIYLPYLHEWKHPQSDLLGLIQVMIVVFGDEPPVFSRPISASYPPYQATGPPNTSYMPGMPGGISPYPSGYPPNPSGYPGCPYPPGGPYPATTSSQYPSQPPVTTVGPSRDGTISEDTIRASLISAVSDKLRWRMKEEMDRAQAELNALKRTEEDLKKGHQKLEEMVTRLDQEVAEVDKNIELLKKKDEELSSALEKMENQSENNDIDEVIIPTAPLYKQILNLYAEENAIEDTIFYLGEALRRGVIDLDVFLKHVRLLSRKQFQLRALMQKARKTAGLSDLY
B4: TRPS1 (protein, UniProt Q9UHF7 1-1281, looked up)
Zinc finger transcription …: MVRKKNPPLRNVASEGEGQILEPIGTESKVSGKNKEFSADQMSENTDQSDAAELNHKEEHSLHVQDPSSSSKKDLKSAVLSEKAGFNYESPSKGGNFPSFPHDEVTDRNMLAFSSPAAGGVCEPLKSPQRAEADDPQDMACTPSGDSLETKEDQKMSPKATEETGQAQSGQANCQGLSPVSVASKNPQVPSDGGVRLNKSKTDLLVNDNPDPAPLSPELQDFKCNICGYGYYGNDPTDLIKHFRKYHLGLHNRTRQDAELDSKILALHNMVQFSHSKDFQKVNRSVFSGVLQDINSSRPVLLNGTYDVQVTSGGTFIGIGRKTPDCQGNTKYFRCKFCNFTYMGNSSTELEQHFLQTHPNKIKASLPSSEVAKPSEKNSNKSIPALQSSDSGDLGKWQDKITVKAGDDTPVGYSVPIKPLDSSRQNGTEATSYYWCKFCSFSCESSSSLKLLEHYGKQHGAVQSGGLNPELNDKLSRGSVINQNDLAKSSEGETMTKTDKSSSGAKKKDFSSKGAEDNMVTSYNCQFCDFRYSKSHGPDVIVVGPLLRHYQQLHNIHKCTIKHCPFCPRGLCSPEKHLGEITYPFACRKSNCSHCALLLLHLSPGAAGSSRVKHQCHQCSFTTPDVDVLLFHYESVHESQASDVKQEANHLQGSDGQQSVKESKEHSCTKCDFITQVEEEISRHYRRAHSCYKCRQCSFTAADTQSLLEHFNTVHCQEQDITTANGEEDGHAISTIKEEPKIDFRVYNLLTPDSKMGEPVSESVVKREKLEEKDGLKEKVWTESSSDDLRNVTWRGADILRGSPSYTQASLGLLTPVSGTQEQTKTLRDSPNVEAAHLARPIYGLAVETKGFLQGAPAGGEKSGALPQQYPASGENKSKDESQSLLRRRRGSGVFCANCLTTKTSLWRKNANGGYVCNACGLYQKLHSTPRPLNIIKQNNGEQIIRRRTRKRLNPEALQAEQLNKQQRGSNEEQVNGSPLERRSEDHLTESHQREIPLPSLSKYEAQGSLTKSHSAQQPVLVSQTLDIHKRMQPLHIQIKSPQESTGDPGNSSSVSEGKGSSERGSPIEKYMRPAKHPNYSPPGSPIEKYQYPLFGLPFVHNDFQSEADWLRFWSKYKLSVPGNPHYLSHVPGLPNPCQNYVPYPTFNLPPHFSAVGSDNDIPLDLAIKHSRPGPTANGASKEKTKAPPNVKNEGPLNVVKTEKVDRSTQDELSTKCVHCGIVFLDEVMYALHMSCHGDSGPFQCSICQHLCTDKYDFTTHIQRGLHRNNAQVEKNGKPKE
B5: TSHZ2 (protein, UniProt Q9NRE2 1-1034, looked up)
Teashirt homolog 2: MPRRKQQAPKRAAGYAQEEQLKEEEEIKEEEEEEDSGSVAQLQGGNDTGTDEELETGPEQKGCFSYQNSPGSHLSNQDAENESLLSDASDQVSDIKSVCGRDASDKKAHTHVRLPNEAHNCMDKMTAVYANILSDSYWSGLGLGFKLSNSERRNCDTRNGSNKSDFDWHQDALSKSLQQNLPSRSVSKPSLFSSVQLYRQSSKMCGTVFTGASRFRCRQCSAAYDTLVELTVHMNETGHYQDDNRKKDKLRPTSYSKPRKRAFQDMDKEDAQKVLKCMFCGDSFDSLQDLSVHMIKTKHYQKVPLKEPVPTISSKMVTPAKKRVFDVNRPCSPDSTTGSFADSFSSQKNANLQLSSNNRYGYQNGASYTWQFEACKSQILKCMECGSSHDTLQQLTTHMMVTGHFLKVTSSASKKGKQLVLDPLAVEKMQSLSEAPNSDSLAPKPSSNSASDCTASTTELKKESKKERPEETSKDEKVVKSEDYEDPLQKPLDPTIKYQYLREEDLEDGSKGGGDILKSLENTVTTAINKAQNGAPSWSAYPSIHAAYQLSEGTKPPLPMGSQVLQIRPNLTNKLRPIAPKWKVMPLVSMPTHLAPYTQVKKESEDKDEAVKECGKESPHEEASSFSHSEGDSFRKSETPPEAKKTELGPLKEEEKLMKEGSEKEKPQPLEPTSALSNGCALANHAPALPCINPLSALQSVLNNHLGKATEPLRSPSCSSPSSSTISMFHKSNLNVMDKPVLSPASTRSASVSRRYLFENSDQPIDLTKSKSKKAESSQAQSCMSPPQKHALSDIADMVKVLPKATTPKPASSSRVPPMKLEMDVRRFEDVSSEVSTLHKRKGRQSNWNPQHLLILQAQFASSLFQTSEGKYLLSDLGPQERMQISKFTGLSMTTISHWLANVKYQLRKTGGTKFLKNMDKGHPIFYCSDCASQFRTPSTYISHLESHLGFQMKDMTRLSVDQQSKVEQEISRVSSAQRSPETIAAEEDTDSKFKCKLCCRTFVSKHAVKLHLSKTHSKSPEHHSQFVTDVDEE
B6: TWIST1 (protein, UniProt Q15672 1-202, looked up)
Twist-related protein 1: MMQDVSSSPVSPADDSLSNSEEEPDRQQPPSGKRGGRKRRSSRRSAGGGAGPGGAAGGGVGGGDEPGSPAQGKRGKKSAGCGGGGGAGGGGGSSSGGGSPQSYEELQTQRVMANVRERQRTQSLNEAFAALRKIIPTLPSDKLSKIQTLKLAARYIDFLYQVLQSDELDSKMASCSYVAHERLSYAFSVWRMEGAWSMSASH
B7: TULP2 (protein, UniProt O00295 1-520, looked up)
Tubby-related protein 2: MSQDNDTLMRDILGHELAAMRLQKLEQQRRLFEKKQRQKRQELLMVQANPDASPWLWRSCLREERLLGDRGLGNPFLRKKVSEAHLPSGIHSALGTVSCGGDGRGERGLPTPRTEAVFRNLGLQSPFLSWLPDNSDAELEEVSVENGSVSPPPFKQSPRIRRKGWQAHQRPGTRAEGESDSQDMGDAHKSPNMGPNPGMDGDCVYENLAFQKEEDLEKKREASESTGTNSSAAHNEELSKALKGEGGTDSDHMRHEASLAIRSPCPGLEEDMEAYVLRPALPGTMMQCYLTRDKHGVDKGLFPLYYLYLETSDSLQRFLLAGRKRRRSKTSNYLISLDPTHLSRDGDNFVGKVRSNVFSTKFTIFDNGVNPDREHLTRNTARIRQELGAVCYEPNVLGYLGPRKMTVILPGTNSQNQRINVQPLNEQESLLSRYQRGDKQGLLLLHNKTPSWDKENGVYTLNFHGRVTRASVKNFQIVDPKHQEHLVLQFGRVGPDTFTMDFCFPFSPLQAFSICLSSFN
B8: TWIST2 (protein, UniProt Q8WVJ9 1-160, looked up)
Twist-related protein 2: MEEGSSSPVSPVDSLGTSEEELERQPKRFGRKRRYSKKSSEDGSPTPGKRGKKGSPSAQSFEELQSQRILANVRERQRTQSLNEAFAALRKIIPTLPSDKLSKIQTLKLAARYIDFLYQVLQSDEMDNKMTSCSYVAHERLSYAFSVWRMEGAWSMSASH

The test system of the assay is HEK293FT cells transfected with TF library. Briefly: Screening of TF condensates based on fluorescent puncta. The assay is classed as cell-based. As to conditions: Figure 1B numerical data; TF library screen, one value per transcriptional factor. The method, boiled down: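 Puncta scoring used automated confocal imaging of fifty random fields per well, after anti-Flag or anti-GAL4 immunofluorescence (Alexa 488) in PFA-fixed cells. HEK293FT cells carried TF library plasmids delivered with PEI (1.6 μg/ml DNA). At 60 h they were switched for 12 h to glucose-containing or glucose-free medium.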
For B1, the “Z score of condensed fraction” value is listed as -1.076.

Take B2: the “Z score of condensed fraction” value is listed as -1.109.

For the molecule B3, the “Z score of condensed fraction” value was 0.9844.

As for B4, the “Z score of condensed fraction” value is -0.2124.

As for B5, the “Z score of condensed fraction” value is -1.212.

With B6, the “Z score of condensed fraction” value is recorded as -0.8032.

With B7, the “Z score of condensed fraction” value was -0.5004.

Take B8: the “Z score of condensed fraction” value is listed as -0.4698.
